T1: HuCDCP1-C (Homo sapiens, UniProt Q9H5V8)
T1 construct: made in house; host or cells: HEK-293T
T1 sequence (Q9H5V8 30-667): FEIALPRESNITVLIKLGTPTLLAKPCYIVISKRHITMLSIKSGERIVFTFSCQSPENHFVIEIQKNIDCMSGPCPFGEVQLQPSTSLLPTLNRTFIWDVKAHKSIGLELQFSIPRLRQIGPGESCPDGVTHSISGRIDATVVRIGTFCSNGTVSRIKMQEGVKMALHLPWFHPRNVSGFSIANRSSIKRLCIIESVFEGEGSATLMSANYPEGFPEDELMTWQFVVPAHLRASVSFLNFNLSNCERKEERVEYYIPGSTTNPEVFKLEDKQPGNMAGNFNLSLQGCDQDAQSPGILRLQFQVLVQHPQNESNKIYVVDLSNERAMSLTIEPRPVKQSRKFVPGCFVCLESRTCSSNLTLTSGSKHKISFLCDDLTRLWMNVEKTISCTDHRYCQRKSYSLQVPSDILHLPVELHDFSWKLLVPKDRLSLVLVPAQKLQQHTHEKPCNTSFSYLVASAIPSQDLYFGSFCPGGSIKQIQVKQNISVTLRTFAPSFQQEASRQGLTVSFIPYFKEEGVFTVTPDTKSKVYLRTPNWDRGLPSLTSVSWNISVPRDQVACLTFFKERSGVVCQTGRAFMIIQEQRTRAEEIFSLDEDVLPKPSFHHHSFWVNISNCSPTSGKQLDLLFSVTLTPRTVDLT


Tests used:
MDA-MB-231 cells [1] = test: Endocytosis capacity of murine monoclonal antibody (flow cytometry internalization); format: cell-based, human; settings: antibody 1.5 μg/mL; for Internalization MDA-MB-231 (%) 2 h: MDA-MB-231, 2 h at 37° C.
Description: (§1) The endocytosis capacity of the antibody was detected for 0.5 to 2 hours. MDA-MB-231 and PC3 cells were subjected to digestion with 5 mM EDTA, and plated at 4×10^4 cells/well after cell counting. After adding an Fc blocker (Human TruStain FcX™, Biolegend, 422302) and blocking at room temperature for 10 mins, a test antibody (1.5 μg/mL) was added, and the mixture was incubated at 4° C. for 30 mins, centrifuged, and washed twice with PBS+2% FBS, then the cells were divided into four equal portions (labeled as 0 h, 0.5 h, 1 h, 2 h), cells labeled as 0.5 h, 1 h, 2 h time points were added to a cell culture medium at 200 µL/well, and cultured at 37° C. for 0.5 h, 1 h, 2 h, respectively. Cells at 0 h point were centrifuged to remove supernatant, a secondary antibody (PE anti-human IgG Fc Antibody, Biolegend, 410708) was added, and the mixture was incubated at 4° C. for 30 mins, centrifuged, and washed twice with PBS+2% FBS, and detection was performed using a flow cytometer. After incubation of cells labeled as 0.5 h, 1 h, and 2 h points at 37° C. was completed, a secondary antibody was added (in the same steps as those at 0 h point), Geo-MFI of the signal under the same voltage was collected as detection signal at 0 h, and antibody internalization rate was calculated according to the following equation: Internalization (%)=(Geo-MFI (0 h)-Geo-MFI (0.5, 1, 2 h))/Geo-MFI (0 h)×100%.

PC3 cells = test: as above; format: cell-based, human; settings: antibody 1.5 μg/mL; for Internalization PC3 (%) 2 h: PC3, 2 h at 37° C.
Description: as §1

HuCDCP1-C = molecular target: T1, HuCDCP1-C; test: Caterra affinity of humanized anti-CDCP1 antibodies; format: binding; settings: HuCDCP1-C 2 μg/ml immobilized
Description: The humanized anti-CDCP1 antibodies obtained from Example 11 were subjected to gene cloning, constructed into pTT5 expression vector for a small amount of expression in CHO cells (Expi-CHOS: Gibco A29127), and purified with an Fc affinity column (AT Protein A Diamond Plus. No. AA402312). Antibody purity was analyzed by HPLC and determined by Nanodrop. High-throughput affinity assay was carried out for a small amount of antibodies by Caterra.

MDA-MB-231 cells [2] = test: Endocytosis capacity of humanized antibodies; format: cell-based, human; settings: antibody 1.5 μg/mL; for 1 h endocytosis (%): MDA-MB-231, 1 h at 37° C.; for 2 h endocytosis (%): MDA-MB-231, 2 h at 37° C.
Description: The endocytosis capacity of the anti-CDCP1 humanized antibody was detected with reference to example 5. MDA-MB-231 cells were subjected to digestion with 5 mM EDTA, and plated at 3×10^4 cells/well after cell counting. After adding an Fc blocker and blocking at room temperature for 10 mins, a test antibody (1.5 μg/mL) was added, and the mixture was incubated at 4° C. for 30 mins, centrifuged, and washed twice with PBS+2% FBS, then the cells were divided into three equal portions (labeled as 0 h, 1 h, 2 h), cells labeled as 1 h and 2 h time points were added to 200 μL of cell culture medium, and cultured at 37° C. for 1 h and 2 h, respectively. Cells at 0 h point were centrifuged, a secondary antibody (PE anti-human IgG Fc Antibody, Biolegend, 410708) was added, and the mixture was incubated at 4° C. for 30 mins, centrifuged, and washed twice with PBS+2% FBS, and detection was performed using a flow cytometer. After incubation of cells labeled as 1 h and 2 h points at 37° C. was completed, a secondary antibody was added (in the same steps as those at 0 h point), Geo-MFI of the signal under the same voltage was collected as detection signal at 0 h, and antibody internalization rate was calculated according to the following equation: Internalization (%)=(Geo-MFI (0 h)-Geo-MFI (1, 2 h))/Geo-MFI (0 h)×100%.

Molecule	ka (HuCDCP1-C) [M⁻¹ s⁻¹]	kd (HuCDCP1-C) [s⁻¹]	Internalization MDA-MB-231 (%) 2 h (MDA-MB-231 cells [1]) [%]	Internalization PC3 (%) 2 h (PC3 cells) [%]	Internalization MDA-MB-231 (%) 0.5 h (MDA-MB-231 cells [1]; MDA-MB-231, 0.5 h at 37° C.) [%]	Internalization MDA-MB-231 (%) 1 h (MDA-MB-231 cells [1]; MDA-MB-231, 1 h at 37° C.) [%]	Internalization PC3 (%) 0.5 h (PC3 cells; PC3, 0.5 h at 37° C.) [%]	Internalization PC3 (%) 1 h (PC3 cells; PC3, 1 h at 37° C.) [%]	1 h endocytosis (%) (MDA-MB-231 cells [2])	2 h endocytosis (%) (MDA-MB-231 cells [2])
1CP-068: anti-CDCP1 murine monoclonal antibody (hybridoma); VH SEQ ID NO: 270, VL SEQ ID NO: 320 (antibody, V domains shown, 1CP-068 heavy chain variable region; 1CP-068 light chain variable region) VH: EVQLKESGAELVRPGALVKLSCKASGFNIKDYYMYWVKQRPEQGLEWIGWIDPENGNTIYDPKLQGKARITADTSSNTAYLQLSSLTSEDTAVYYCAGRLYAMEYWGQGTTVTVSS VL: DVVMTQTPALMSASPGEKVTMTCSASSSVSYMYWYQQKPRSSPKPWIYLTSNLASGVPARFSGSGSGTSYSLTISSMEAEDAATYYCQQWSSDPFTFGGGTKLEIK			49.47	66.24						
12E6: anti-CDCP1 murine monoclonal antibody (hybridoma); VH SEQ ID NO: 255, VL SEQ ID NO: 305 (antibody, V domains shown, 12E6 heavy chain variable region; 12E6 light chain variable region) VH: EVQLKESGPGILQPSQTLSLTCSFSGFSLSTSGMGVGWIRQPSGKGLEWLAHIWWDDVKLYNPALKSRLTISKETSNNQVFLKIASVDAADTATYYCARIDHGYGSNYWDFDVWGAGTTVTVSS VL: DIVMTQAAPSVPVTPGGSVSISCRSTKSLLHSDGKTYLYWFLQRPGQSPQLLIYRMSNLASGVPDRFSGSGSGTAFTLRISRVEAEDVGVYYCMQHLEYPFTFGSGTKLEIK			27.65	7.99	10.62	7.08	0.00	0.00		
1CP-117: humanized anti-CDCP1 antibody produced by 8E5; VH SEQ ID NO: 348, VL SEQ ID NO: 358 (antibody, V domains shown, humanized antibody 8E5 heavy chain variable region 01; humanized antibody 8E5 light chain variable region 02) VH: QVQLVQSGSELKKPGASVKVSCKASGYTLTDFSMHWVRQAPGQGLEWMGWINTETGAPTYADDFKGRFVLSLDTSVSTAYLQISSLKAEDTAVYYCSRGRDYDPHFDYWGQGTLVTVSS VL: EIVLTQSPATLSLSPGERATLSCRASQSISDFLHWYQQKPGQSPRLLIKYASQSISGIPARFSGSGSGSDFTLTISSVEPEDFAVYYCQSAHSFPYTFGQGTKLEIK	152000	3.93e-05							45.68	68.37
1CP-121: humanized anti-CDCP1 antibody produced by 8E5; VH SEQ ID NO: 348, VL SEQ ID NO: 359 (antibody, V domains shown, humanized antibody 8E5 heavy chain variable region 01; humanized antibody 8E5 light chain variable region 03) VH: QVQLVQSGSELKKPGASVKVSCKASGYTLTDFSMHWVRQAPGQGLEWMGWINTETGAPTYADDFKGRFVLSLDTSVSTAYLQISSLKAEDTAVYYCSRGRDYDPHFDYWGQGTLVTVSS VL: EIVLTQSPATLSLSPGERATLSCRASQSISDFLHWYQQKSGQSPRLLIKYASQSISGIPARFSGSGSGSDFTLTISSVEPEDFAVYYCQSAHSFPYTFGQGTKLEIK	148000	1e-05							51.49	72.98
1CP-124: humanized anti-CDCP1 antibody produced by 3C11; VH SEQ ID NO: 339, VL SEQ ID NO: 351 (antibody, V domains shown, humanized antibody 3C11 heavy chain variable region 01; humanized antibody 3C11 light chain variable region 01) VH: QVQLVQSGAEVKKPGASVKVSCKASGYNFISYWLHWVRQAPGQGLEWMGGIYPGNTDTTYNQKFKGRVTMTRDTSTSTVYMELSSLRSEDTAVYYCIRYDYDRGMDYWGQGTLVTVSS VL: DIQMTQSPSSLSASVGDRVTITCRASEDIYYRLAWYQQKPGKAPKLLISGATALETGVPSRFSGSGSGKDYTFTISSLQPEDIATYYCQHYWNIPWTFGQGTKVEIK	148000	1.47e-05							38.17	56.39

The next lines start with results.

ka (HuCDCP1-C) [M⁻¹ s⁻¹]	kd (HuCDCP1-C) [s⁻¹]	Molecule	Internalization MDA-MB-231 (%) 2 h (MDA-MB-231 cells [1]) [%]	Internalization PC3 (%) 2 h (PC3 cells) [%]	Internalization MDA-MB-231 (%) 0.5 h (MDA-MB-231 cells [1]; MDA-MB-231, 0.5 h at 37° C.) [%]	Internalization MDA-MB-231 (%) 1 h (MDA-MB-231 cells [1]; MDA-MB-231, 1 h at 37° C.) [%]	Internalization PC3 (%) 0.5 h (PC3 cells; PC3, 0.5 h at 37° C.) [%]	Internalization PC3 (%) 1 h (PC3 cells; PC3, 1 h at 37° C.) [%]	1 h endocytosis (%) (MDA-MB-231 cells [2])	2 h endocytosis (%) (MDA-MB-231 cells [2])
139000	1e-05	1CP-128: humanized anti-CDCP1 antibody produced by 3C11; VH SEQ ID NO: 339, VL SEQ ID NO: 352 (antibody, V domains shown, humanized antibody 3C11 heavy chain variable region 01; humanized antibody 3C11 light chain variable region 02) VH: QVQLVQSGAEVKKPGASVKVSCKASGYNFISYWLHWVRQAPGQGLEWMGGIYPGNTDTTYNQKFKGRVTMTRDTSTSTVYMELSSLRSEDTAVYYCIRYDYDRGMDYWGQGTLVTVSS VL: DIQMTQSPSSLSASVGDRVTITCRASEDIYYRLAWYQQKPGKAPKLLISGATALETGVPSRFSGSGSGKDYTLTISSLQPEDIATYYCQHYWNIPWTFGQGTKVEIK							36.87	55.68
151000	2.17e-05	1CP-125: humanized anti-CDCP1 antibody produced by 3C11; VH SEQ ID NO: 340, VL SEQ ID NO: 351 (antibody, V domains shown, humanized antibody 3C11 heavy chain variable region 02; humanized antibody 3C11 light chain variable region 01) VH: QVQLVQSGAEVKKPGASVKVSCKASGYNFISYWLHWVRQAPGQGLEWMGGIYPGNTDTTYNQKFKGRVTMTADTSTSTVYMELSSLRSEDTAVYYCIRYDYDRGMDYWGQGTLVTVSS VL: DIQMTQSPSSLSASVGDRVTITCRASEDIYYRLAWYQQKPGKAPKLLISGATALETGVPSRFSGSGSGKDYTFTISSLQPEDIATYYCQHYWNIPWTFGQGTKVEIK							79.56	88.62
